Patent CN115724950A (YIDAO BIOTECHNOLOGY SUZHOU CO LTD, dated 2023)

T1: HPV6-GFP假病毒 (Human papillomavirus type 6, UniProt P69899 1-500)
T1 sequence: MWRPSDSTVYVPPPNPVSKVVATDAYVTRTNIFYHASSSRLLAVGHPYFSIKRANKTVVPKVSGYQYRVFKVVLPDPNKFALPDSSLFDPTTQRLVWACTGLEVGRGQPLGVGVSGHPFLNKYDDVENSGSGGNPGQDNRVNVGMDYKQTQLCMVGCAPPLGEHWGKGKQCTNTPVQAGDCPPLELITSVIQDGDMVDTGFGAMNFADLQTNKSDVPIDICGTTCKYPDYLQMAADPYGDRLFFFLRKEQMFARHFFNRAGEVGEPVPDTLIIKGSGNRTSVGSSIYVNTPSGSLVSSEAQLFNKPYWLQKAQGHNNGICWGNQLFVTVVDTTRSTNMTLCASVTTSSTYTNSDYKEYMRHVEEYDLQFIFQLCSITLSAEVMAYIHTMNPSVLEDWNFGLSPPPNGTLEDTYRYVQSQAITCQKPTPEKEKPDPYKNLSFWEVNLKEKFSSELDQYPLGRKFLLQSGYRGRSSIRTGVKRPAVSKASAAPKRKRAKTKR

T2: HPV 33 抗原 (Human papillomavirus type 33, UniProt P06416 1-499)
T2 sequence: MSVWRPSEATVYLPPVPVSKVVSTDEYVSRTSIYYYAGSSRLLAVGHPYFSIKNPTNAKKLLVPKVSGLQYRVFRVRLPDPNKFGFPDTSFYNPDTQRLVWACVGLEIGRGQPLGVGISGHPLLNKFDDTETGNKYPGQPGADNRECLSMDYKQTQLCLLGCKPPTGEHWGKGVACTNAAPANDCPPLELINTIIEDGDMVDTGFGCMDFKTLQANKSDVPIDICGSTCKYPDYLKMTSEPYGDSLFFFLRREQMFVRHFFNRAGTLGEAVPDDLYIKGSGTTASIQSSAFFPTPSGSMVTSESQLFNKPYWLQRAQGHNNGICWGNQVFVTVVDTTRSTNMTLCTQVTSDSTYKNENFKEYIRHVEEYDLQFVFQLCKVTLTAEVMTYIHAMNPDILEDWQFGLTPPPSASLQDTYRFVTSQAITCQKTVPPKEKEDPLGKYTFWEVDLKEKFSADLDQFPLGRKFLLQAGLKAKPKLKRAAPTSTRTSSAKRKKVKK

T3: HPV31 抗原 (Human papillomavirus type 31, UniProt P17388 1-504)
T3 sequence: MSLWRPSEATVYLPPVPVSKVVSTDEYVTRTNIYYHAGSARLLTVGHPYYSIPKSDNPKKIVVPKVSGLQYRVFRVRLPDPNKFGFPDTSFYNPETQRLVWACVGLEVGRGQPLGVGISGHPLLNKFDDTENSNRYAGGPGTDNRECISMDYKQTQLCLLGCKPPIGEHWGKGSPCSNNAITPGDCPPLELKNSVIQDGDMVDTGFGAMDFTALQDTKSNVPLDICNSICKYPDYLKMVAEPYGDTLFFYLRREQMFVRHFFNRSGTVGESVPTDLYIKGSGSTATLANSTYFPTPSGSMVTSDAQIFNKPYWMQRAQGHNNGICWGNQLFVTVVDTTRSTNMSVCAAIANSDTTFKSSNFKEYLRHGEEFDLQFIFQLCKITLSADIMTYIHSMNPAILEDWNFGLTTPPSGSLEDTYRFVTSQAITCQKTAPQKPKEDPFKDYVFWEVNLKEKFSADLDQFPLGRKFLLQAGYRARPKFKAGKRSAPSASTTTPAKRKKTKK

T4: HPV 16 抗原 (Human papillomavirus type 16, UniProt P03101 1-505)
T4 sequence: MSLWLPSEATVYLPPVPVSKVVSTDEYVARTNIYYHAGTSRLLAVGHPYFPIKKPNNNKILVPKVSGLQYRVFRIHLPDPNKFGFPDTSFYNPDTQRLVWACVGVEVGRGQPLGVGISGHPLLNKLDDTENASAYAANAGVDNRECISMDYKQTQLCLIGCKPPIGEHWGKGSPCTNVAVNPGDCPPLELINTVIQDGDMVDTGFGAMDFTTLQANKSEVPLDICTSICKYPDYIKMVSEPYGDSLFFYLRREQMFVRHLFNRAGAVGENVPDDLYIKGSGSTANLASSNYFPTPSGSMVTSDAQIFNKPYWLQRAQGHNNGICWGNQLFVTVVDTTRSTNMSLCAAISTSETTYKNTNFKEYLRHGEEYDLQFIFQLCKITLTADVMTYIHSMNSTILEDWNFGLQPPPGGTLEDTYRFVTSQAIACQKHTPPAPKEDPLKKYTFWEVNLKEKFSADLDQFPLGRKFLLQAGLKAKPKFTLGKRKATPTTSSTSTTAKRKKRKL

T5: HPV11 抗原 (Human papillomavirus type 11, UniProt P04012 1-501)
T5 sequence: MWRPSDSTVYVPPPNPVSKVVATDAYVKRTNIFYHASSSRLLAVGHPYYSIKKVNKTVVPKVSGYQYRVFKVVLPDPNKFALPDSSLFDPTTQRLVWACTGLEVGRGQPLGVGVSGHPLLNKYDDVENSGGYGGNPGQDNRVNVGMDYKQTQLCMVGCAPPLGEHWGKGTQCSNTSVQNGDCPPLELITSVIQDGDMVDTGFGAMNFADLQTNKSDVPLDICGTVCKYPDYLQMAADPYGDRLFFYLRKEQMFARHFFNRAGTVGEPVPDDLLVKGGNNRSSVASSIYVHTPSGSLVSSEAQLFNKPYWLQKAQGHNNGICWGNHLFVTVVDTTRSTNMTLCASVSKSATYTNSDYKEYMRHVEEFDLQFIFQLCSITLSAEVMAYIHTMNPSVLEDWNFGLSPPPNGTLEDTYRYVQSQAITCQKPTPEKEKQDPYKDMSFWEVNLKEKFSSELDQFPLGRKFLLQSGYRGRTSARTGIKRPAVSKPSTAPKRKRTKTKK

T6: HPV 58 抗原 (Human papillomavirus type 58, UniProt P26535 27-524)
T6 sequence: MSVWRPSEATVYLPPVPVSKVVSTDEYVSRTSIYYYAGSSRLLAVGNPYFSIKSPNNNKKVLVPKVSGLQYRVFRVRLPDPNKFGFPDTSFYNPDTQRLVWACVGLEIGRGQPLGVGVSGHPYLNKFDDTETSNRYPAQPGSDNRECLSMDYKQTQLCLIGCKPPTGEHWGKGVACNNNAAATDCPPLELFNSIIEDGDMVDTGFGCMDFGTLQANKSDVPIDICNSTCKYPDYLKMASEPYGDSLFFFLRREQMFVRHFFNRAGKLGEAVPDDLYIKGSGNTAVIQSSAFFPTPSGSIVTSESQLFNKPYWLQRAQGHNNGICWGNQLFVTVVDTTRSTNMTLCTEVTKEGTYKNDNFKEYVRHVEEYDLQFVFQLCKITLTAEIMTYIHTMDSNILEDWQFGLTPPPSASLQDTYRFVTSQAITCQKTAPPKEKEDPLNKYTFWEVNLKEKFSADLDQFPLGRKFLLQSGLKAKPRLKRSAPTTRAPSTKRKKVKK

T7: HPV 18 抗原 (Human papillomavirus type 18, UniProt P06794 62-568)
T7 sequence: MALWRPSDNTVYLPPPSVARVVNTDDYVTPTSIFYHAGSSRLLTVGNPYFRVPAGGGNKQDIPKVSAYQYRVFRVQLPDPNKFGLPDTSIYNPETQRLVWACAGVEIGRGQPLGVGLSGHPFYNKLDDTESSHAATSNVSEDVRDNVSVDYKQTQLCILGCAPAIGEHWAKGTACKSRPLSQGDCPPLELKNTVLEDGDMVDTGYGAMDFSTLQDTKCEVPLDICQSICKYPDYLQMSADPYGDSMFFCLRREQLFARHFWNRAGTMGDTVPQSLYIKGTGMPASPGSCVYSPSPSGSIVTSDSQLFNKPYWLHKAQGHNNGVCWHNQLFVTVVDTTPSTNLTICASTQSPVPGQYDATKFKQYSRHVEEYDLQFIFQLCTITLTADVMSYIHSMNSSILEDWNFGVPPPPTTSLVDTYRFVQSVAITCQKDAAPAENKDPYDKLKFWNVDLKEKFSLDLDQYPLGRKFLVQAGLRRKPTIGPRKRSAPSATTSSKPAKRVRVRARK

T8: HPV 45 抗原 (Human papillomavirus type 45, UniProt P36741 27-539)
T8 sequence: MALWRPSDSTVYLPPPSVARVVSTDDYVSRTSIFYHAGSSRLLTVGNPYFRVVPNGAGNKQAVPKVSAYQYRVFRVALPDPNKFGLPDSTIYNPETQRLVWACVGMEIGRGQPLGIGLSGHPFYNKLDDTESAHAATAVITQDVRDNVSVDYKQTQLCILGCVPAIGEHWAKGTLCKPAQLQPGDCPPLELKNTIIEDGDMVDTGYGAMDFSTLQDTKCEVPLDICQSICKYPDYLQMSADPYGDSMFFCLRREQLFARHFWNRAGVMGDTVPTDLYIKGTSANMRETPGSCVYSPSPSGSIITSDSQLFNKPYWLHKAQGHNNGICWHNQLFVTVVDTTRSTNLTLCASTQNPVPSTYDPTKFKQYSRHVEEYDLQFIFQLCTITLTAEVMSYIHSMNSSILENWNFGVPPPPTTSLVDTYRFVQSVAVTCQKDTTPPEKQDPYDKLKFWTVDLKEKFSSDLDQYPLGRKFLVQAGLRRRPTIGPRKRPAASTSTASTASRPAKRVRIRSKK

B1: 1G11 鼠源单克隆抗体 (杂交瘤 CGMCC No.45133) (antibody, V domains shown)
VH: EVKLVESGGGLVKPGGSLKLSCAASGVTFSSYAMSWVRQTPEKRLEWVASITRGGSTYYPDSVKGRFTISRDNARNILYLQMSSLRSEDTAMYYCAREGEDYYGSSYVDYWGQGTTLTVSS
VL: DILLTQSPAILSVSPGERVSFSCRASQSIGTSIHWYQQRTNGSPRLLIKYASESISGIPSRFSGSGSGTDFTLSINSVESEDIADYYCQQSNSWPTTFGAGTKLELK
notes: Tested as hybridoma supernatant (1.3, 1.4) and as protein G purified ascites antibody (1.6, 3.1); also called 第一单克隆抗体; 1G11 Lot#:2021081603
B2: 6H1 鼠源单克隆抗体 (杂交瘤 CGMCC No.45134) (antibody, V domains shown)
VH: EVQLQQSGPEVVKTGASVKISCKASGYSFTGYYMHWVKQSHGKSLEWIGYISCYNGATSYNQKFKGKATFTLDTSSSTAYMQFNSLTSEDSAVYYCAREDEYDGAYYLDYWGQGTTLTVSS
VL: DIVMTQSQKFMSTSVGDRVSVTCKASQNVGTNVAWYQQKPGQSPKTLIYSASYRYSGVPDRFTGSGSGTDFTLTISNVQSEDLAEYFCQQYFRYPLTFGAGTKLELK
notes: Tested as hybridoma supernatant (1.3, 1.4) and as protein G purified ascites antibody (1.6, 3.1); also called 第二单克隆抗体; 6H1 Lot#:2021081604

Tests used:
HPV6-GFP假病毒 = biological target: T1, HPV6-GFP假病毒; assay: cell-based or functional assay
HPV 33 抗原 = biological target: T2, HPV 33 抗原; assay: indirect ELISA, antigen coated at 1 μg/ml, supernatant diluted 20-fold
HPV31 抗原 = biological target: T3, HPV31 抗原; assay: as above
HPV 16 抗原 = biological target: T4, HPV 16 抗原; assay: as above
HPV11 抗原 = biological target: T5, HPV11 抗原; assay: as above
HPV 58 抗原 = biological target: T6, HPV 58 抗原; assay: as above
HPV 18 抗原 = biological target: T7, HPV 18 抗原; assay: as above
HPV 45 抗原 = biological target: T8, HPV 45 抗原; assay: as above

Row | Binder | 假病毒中和实验 (HPV6-GFP假病毒, 293FT细胞, 荧光斑点数) (HPV6-GFP假病毒) | 假病毒中和实验, 中和活性 (HPV6-GFP假病毒) | binding result (HPV 33 抗原) | binding result (HPV31 抗原) | binding result (HPV 16 抗原) | binding result (HPV11 抗原) | binding result (HPV 58 抗原) | binding result (HPV 18 抗原) | binding result (HPV 45 抗原)
1 | B1 | ≥ 5120 fold dilution of supernatant | 20500 fold dilution (titre) | no binding | no binding | no binding | no binding | no binding | no binding | no binding
2 | B2 | ≥ 5120 fold dilution of supernatant | 20500 fold dilution (titre) | no binding | no binding | no binding | no binding | no binding | no binding | no binding
